What was measured:
[1] = biological target: T1, GST-Z1 (GST fused to the Z1 domain of RIP60, zinc fingers 1-5)
T1 chain: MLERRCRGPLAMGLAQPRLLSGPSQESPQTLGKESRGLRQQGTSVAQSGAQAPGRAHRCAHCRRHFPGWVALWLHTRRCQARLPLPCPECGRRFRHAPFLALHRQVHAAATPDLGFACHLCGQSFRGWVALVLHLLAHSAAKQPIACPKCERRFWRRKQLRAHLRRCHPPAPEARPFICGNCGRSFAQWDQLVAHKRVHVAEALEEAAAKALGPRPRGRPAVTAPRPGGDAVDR

[2] = biological target: T2, GST-Z2 (GST fused to the Z2 domain of RIP60, zinc fingers 6-8 plus 37 amino acids of the proline rich region)
T2 chain: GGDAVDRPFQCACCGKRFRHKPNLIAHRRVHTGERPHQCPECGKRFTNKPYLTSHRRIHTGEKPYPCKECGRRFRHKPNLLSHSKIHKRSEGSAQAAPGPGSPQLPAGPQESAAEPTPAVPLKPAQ

GST-Z2-P123 = biological target: T3, GST-Z2-P123
T3 chain: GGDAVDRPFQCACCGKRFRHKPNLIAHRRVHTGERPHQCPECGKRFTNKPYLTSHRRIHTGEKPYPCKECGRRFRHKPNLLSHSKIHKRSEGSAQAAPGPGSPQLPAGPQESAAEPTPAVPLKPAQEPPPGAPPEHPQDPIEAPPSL

[3] = biological target: T4, GST-Z3 (GST fused to the Z3 domain of RIP60, zinc fingers 9-15)
T4 chain: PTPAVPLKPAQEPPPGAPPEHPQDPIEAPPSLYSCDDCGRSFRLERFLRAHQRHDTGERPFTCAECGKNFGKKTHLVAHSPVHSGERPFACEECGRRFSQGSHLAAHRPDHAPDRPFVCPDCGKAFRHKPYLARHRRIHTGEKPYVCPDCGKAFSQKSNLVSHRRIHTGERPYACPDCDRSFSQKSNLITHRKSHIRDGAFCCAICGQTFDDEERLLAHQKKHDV

B1: casein kinase II (CKII; New England Biolabs) (protein)
chain 1: MSGPVPSRARVYTDVNTHRPREYWDYESHVVEWGNQDDYQLVRKLGRGKYSEVFEAINITNNEKVVVKILKPVKKKKIKREIKILENLRGGPNIITLADIVKDPVSRTPALVFEHVNNTDFKQLYQTLTDYDIRFYMYEILKALDYCHSMGIMHRDVKPHNVMIDHEHRKLRLIDWGLAEFYHPGQEYNVRVASRYFKGPELLVDYQMYDYSLDMWSLGCMLASMIFRKEPFFHGHDNYDQLVRIAKVLGTEDLYDYIDKYNIELDPRFNDILGRHSRKRWERFVHSENQHLVSPEALDFLDKLLRYDHQSRLTAREAMEHPYFYTVVKDQARMGSSSMPGGSTPVSSANMMSGISSVPTPSPLGPLAGSPVIAAANPLGMPVPAAAGAQQ
chain 2: not shown
phosphorylation in vitro (32P-ATP, SDS gel, autoradiography) [1]: neither GST-Z1 nor GST-Z3 were phosphorylated to any great degree
phosphorylation in vitro (32P-ATP, SDS gel, autoradiography) [2]: Only the GST-Z2 polypeptide, which contains the casein kinase II phosphorylation domain was phosphorylated
phosphorylation in vitro with and without DNA (32P-ATP, SDS gel, autoradiography) [2]: GST-Z2 polypeptide was phosphorylated by casein kinase II in the absence of DNA. However, the extent of phosphorylation increased in the presence of the double stranded DRS oligo, the linearized plasmid pCH127 and the supercoiled pCH127
phosphorylation in vitro (32P-ATP, SDS gel, autoradiography) (GST-Z2-P123): Both GST-Z2 and GST-Z2P123 were phosphorylated
phosphorylation in vitro (32P-ATP, SDS gel, autoradiography) [3]: neither GST-Z1 nor GST-Z3 were phosphorylated to any great degree

Reference: patent publication US6780986
